Test results published in patent US20110202000A1 (MEDTRONIC, published 2011).
Numbering of substitutions follows the chain as printed.

B1: MDT-2007 (composite human antibody sequence variant VH4/VK2) (antibody, V domains shown)
VH: QVQLVQSGAEVKKPGASVKVSCTASGFNIKDTYIHWVRQARGQRLEWIGRFDPVNVNTRYDSRFRGRVTITSDASTNTAYMELSSLRSEDTAVYYCSRSYYNGRRRFTYWGQGTLVTVSS
VL: DIVMTQSPSSLTASVGDRVTITCKASQSLLSSGNQKNYLTWYQQKPGQPPKLLIYWASIRESGVPDRFTGSGSGTFFTLTISSLQAEDVAVYYCQNDYNYPFTFGQGTKLEIK
notes: Human IgG1/kappa (pANT15/pANT13)
B2: chimeric 6E10 antibody (mouse 6E10 V regions, human IgG1/kappa constant regions) (antibody, V domains shown)
VH: EVQLQQSGAELVKPGASVKLSCTASGFNIKDTYIHWVKQRPEQGLEWIGRFDPVNVNTRYDSRFRGKATITSDASSNTAYLHLNSLTSEDTAVYYCSRSYYNGRRRFTYWGQGTLVTVSA
VL: B1 VL with A13V, S14T, V15A, D17E, R18K, T20A, I21L, L84V, V89L, Q106S
notes: also called chimeric mouse 6E10 antibody; chimeric antibody
B3: composite human antibody variant VH5/VK1 (antibody, human IgG1, V domains shown)
VH: B1 VH with N77S
VL: B1 VL with S9D, A13V, V15L, D17E, V19A, T22N
notes: as for B1
B4: composite human antibody variant VH4/VK1 (antibody, human IgG1, V domains shown)
VH: B1 VH
VL: B1 VL with S9D, A13V, V15L, D17E, V19A, T22N
notes: as for B1
B5: composite human antibody variant VH5/VK2 (antibody, human IgG1, V domains shown)
VH: B1 VH with N77S
VL: B1 VL
notes: as for B1
B6: composite human antibody variant VH1/VK3 (antibody, human IgG1, V domains shown)
VH: B1 VH with Q1E, V11L, R41P, V68A
VL: B1 VL with T69S, F76D
notes: Human IgG1/kappa (pANT15/pANT13); Tested as quantified NS0 supernatant
B7: composite human antibody variant VH1/VK1 (antibody, human IgG1, V domains shown)
VH: B1 VH with Q1E, V11L, R41P, V68A
VL: B1 VL with S9D, A13V, V15L, D17E, V19A, T22N
notes: as for B6
B8: composite human antibody variant VH4/VK3 (antibody, human IgG1, V domains shown)
VH: B1 VH
VL: B1 VL with T69S, F76D
notes: as for B6
B9: composite human antibody variant VH5/VK3 (antibody, human IgG1, V domains shown)
VH: B1 VH with N77S
VL: B1 VL with T69S, F76D
notes: as for B6
B10: composite human antibody variant VH2/VK2 (antibody, human IgG1, V domains shown)
VH: B1 VH with Q1E, V68A
VL: B1 VL
notes: as for B6
B11: composite human antibody variant VH3/VK3 (antibody, human IgG1, V domains shown)
VH: B1 VH with V68A
VL: B1 VL with T69S, F76D
notes: as for B6
B12: composite human antibody variant VH2/VK3 (antibody, human IgG1, V domains shown)
VH: B1 VH with Q1E, V68A
VL: B1 VL with T69S, F76D
notes: as for B6
B13: PSA-conjugated 6E10 IgG anti-Aβ antibody (antibody, V domains shown)
VH: B2 VH
VL: B1 VL with A13V, S14T, V15A, D17E, R18K, T20A, I21L, L84V, V89L, Q106S
modifications: polysialic acid (PSA) conjugated; site and chain not stated; polysialic acid (PSA, 30 to 90 sialic acid units) conjugated by periodate oxidation and sodium cyanoborohydride; site and chain not stated
notes: also called PSA-conjugated IgG anti-Aβ; conjugated IgG antibodies

Each binder was assayed against T1, Abeta42 beta amyloid peptide (UniProt P05067 672-713) (assay: competition ELISA on coated beta amyloid, purified antibody, n=2; competitor biotinylated chimeric mouse 6E10).
T1 construct: domain: Abeta42; also called Aβ42; beta amyloid (Covance)
T1 sequence (P05067 672-713 limits assumed): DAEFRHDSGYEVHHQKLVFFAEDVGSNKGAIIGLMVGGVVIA
Experimental: (§1) Binding of humanized variants were tested in the competition binding ELISA described in Example 1. Briefly, supernatants from the best expressing lines for each combination were quantified using an Fc capture, Kappa light chain detection ELISA in comparison to a IgG1/kappa standard. The quantified supernatants were then tested in a competition ELISA for binding to their target antigen, beta amyloid. 96 well maxisorb plates (Nunc-Fisher Scientific, Loughborough, UK) were coated overnight at 4° C. with 50 μl/well of 0.06125 μg/ml beta amyloid (Covance, UK) in carbonate buffer pH 9.6. […] The titrations, 50 μl/well, were added to washed (3× with PBS pH 7.4/0.5%BSA/0.05% Tween 20) assay plates and incubated at room temperature for 1 hour. Plates were washed as above and 100 μl/well of a 1/500 dilution of streptavidin HRP (Sigma, Poole, UK) in PBS pH 7.4/0.5% BSA/0.05% Tween was added and incubated for a further 1 hour at room temperature. […] After stopping the reaction with 50 μl/well 3M HCl, absorbance was measured at 450 nm and the binding curves of the test antibodies were compared to the mouse reference standard. Absorbance was plotted against sample concentration and straight lines were fitted through each of the data sets.
The purified antibodies were tested for binding to beta amyloid via competition ELISA as described above (n=2). Titrations of the test antibodies were done from 0.003 μg/ml to 16 μg/ml in duplicate. Absorbance at 450 nm was measured and this was plotted against test antibody concentration.

Row | Binder | Fold Difference (IC50 normalized to the reference) | IC50
1 | B1 | 0.57 fold | 2.1 µg/mL
2 | B2 | 1 fold | 3.6 µg/mL
3 | B3 | 0.91 fold | 3.3 µg/mL
4 | B4 | 1.14 fold | 4.1 µg/mL
5 | B5 | 0.72 fold | 2.6 µg/mL

The binders below were run against T1, Abeta42 beta amyloid peptide (assay: competition ELISA on coated beta amyloid, purified antibody (Table 4 experiment)).
Experimental: as §1, with “hour.” for “hour. Plates were washed as above and 100 μl/well of a 1/500 dilution of streptavidin HRP (Sigma, Poole, UK) in PBS pH 7.4/0.5% BSA/0.05% Tween was added and incubated for a further 1 hour at room temperature.”
The purified antibodies were tested for binding to beta amyloid via competition ELISA as described above (n=2). […] Absorbance at 450 nm was measured and this was plotted against test antibody concentration.

Row | Binder | fold increase in binding compared to the mouse reference
6 | B1 | 1.72 fold

What follows are binders tested against T1, Abeta42 beta amyloid peptide (assay: competition ELISA on coated beta amyloid, NS0 supernatant; competitor biotinylated mouse 6E10).
Experimental: 100 μl of the antibody mixes were transferred into the wells of Immulon Maxisorb plates precoated with 0.06125 μg/ml Abeta₄₂ beta amyloid peptide coated plates and incubated at room temperature for 1 hour. The plate was washed, and bound biotinylated mouse 6E10 was detected by adding a strepavidin-HRP conjugate (Sigma, Poole UK) (diluted at 1:500) and OPD substrate (Sigma, Poole UK). The assay was developed in the dark for 5 minutes before being stopped by the addition of 3M HCl. The assay plate was then read in a MRX TCII plate reader at absorbance 490 nm.
as §1

Row | Binder | fold difference in IC50 relative to mouse 6E10 (Binding Efficiencies Relative to Mouse MDT-2007)
7 | B1 | 0.67 fold
8 | B3 | 0.8 fold
9 | B4 | 0.94 fold
10 | B6 | 1.93 fold
11 | B5 | 0.72 fold
12 | B7 | 0.78 fold
13 | B8 | 1.36 fold
14 | B9 | 1.02 fold
15 | B10 | 1.1 fold
16 | B11 | 1.57 fold
17 | B12 | 0.96 fold

What follows are binders tested against T1, Abeta42 beta amyloid peptide (assay: western immunoblot of Aβ42 peptide, antibody at 1000-fold dilution).
Experimental: (§2) The resulting conjugated antibodies (IgG and F(ab)₂ fragments) were subjected to dialysis to separate conjugated from unconjugated antibodies. The conjugated IgG antibodies were tested for their ability to bind amyloid beta (Aβ40 and Aβ42), using a western immunoblotting assay. In brief, Aβ40 or Aβ42 peptides (0.5 μg in diluent; Covance) were diluted in 4 μl nanopure water and prepared with 2× sample buffer to run through 4-20% Pierce Precise Protein Gel at 55V for 15 min, and then at 100V for 55 min. The proteins were then transferred onto 0.2 μm nitrocellulose membrane at 6V for 30 min. The membrane was blocked with a solution of dried milk powder (5% in Tris-buffered saline with Tween20; TBST, 1 L distilled water, 8 g NaCl, 2.4 g Tris, pH 7.5 with HCl, 1 mL Tween20). Membranes were then incubated overnight with a 1000-fold dilution of unconjugated or PSA-conjugated 6E10 IgG or F(ab′)₂ preparations, washed thrice with TBST for 5 min each, incubated with 1:2000 dilution of HRP-conjugated goat anti-mouse secondary antibody, and washed twice again with TBST for 10 min each. The chemiluminescent signal was developed with ECL-Plus reagent and the membranes were exposed to Kodak films to illustrate the bands.

Row | Binder | binding result
18 | B13 | binds

Each binder was assayed against T2, Aβ40 peptide (UniProt P05067 672-711) (assay: western immunoblot of Aβ40 peptide, antibody at 1000-fold dilution).
T2 construct: domain: Aβ40; also called amyloid beta
T2 sequence (P05067 672-711 limits assumed): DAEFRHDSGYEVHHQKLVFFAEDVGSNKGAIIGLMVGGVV
Experimental: as §2

Row | Binder | binding result
19 | B13 | binds
